These results are taken from PMC3905892 (Nucleic Acids Research, 2013).

Broadly, the stoichiometry N is the number of molecules, sites or subunits per partner or assembly.

The assay concerns the target Paf1(57–392) (human, UniProt Q8N7H5 57-392). Nature of the assay: SEC. On the technique in general: Size exclusion chromatography separates by hydrodynamic size, large species first.

B1: Leo1(277–562) (domain or fragment)
chain: SDSEDEVLRMKRKNAIASDSEADSDTEVPKDNSGTMDLFGGADDISSGSDGEDKPPTPGQPVDENGLPQDQQEEEPIPETRIEVEIPKVNTDLGNDLYFVKLPNFLSVEPRPFDPQYYEDEFEDEEMLDEEGRTRLKLKVENTIRWRIRRDEEGNEIKESNARIVKWSDGSMSLHLGNEVFDVYKAPLQGDHNHLFIRQGTGLQGQAVFKTKLTFRPHSTDSATHRKMTLSLADRCSKTQKIRILPMAGRDPECQRTEMIKKEEERLRASIRRESQQRRMREKQHQ
For the molecule B1, the “stoichiometry N” value was determined as 1.
